Patent US20030185836A1 (published 2003)

B1: S30 (minor sporozoite protein, proteolytic degradation product of S45) (other)
chain: TGEDAEGSQDSSGTEASGSQGSEEEGSEDDGQTSAASQPTTPAQSEGATTETIEATPKEECGTSFVMWFGEGTPAATLKCGAYTIVYAPIKDQTDPAPRYISGEVTSVTFEKSDNTVKIKVNGQDFSTLSANSSSPTENGGSAGQASSR
B2: S15 glycoprotein (15 kDa sporozoite surface protein of Cryptosporidium parvum) (other)
chain: SEETSEAAATVDLFAFTLDGGKRIEVAVPNVEDASKRDKYSLVADDKPFYTGANSGTTNGVYRLNENGDLVDKDNTVLLKDAG
modifications: glycosylated (labelled by H. pomatia lectin); glycosyl phosphatidyl inositol anchor predicted at the C-terminal glycine (residue 305 of S60)
notes: Native protein from sporozoites/oocysts, on blots after SDS-PAGE; also called 15 kDa protein band; 15 kDa protein
B3: S45 glycoprotein (45 kDa sporozoite surface protein of Cryptosporidium parvum) (other)
chain: DVPVEGSSSSSSSSSSSSSSSSSSSSSTSTVAPANKARTGEDAEGSQDSSGTEASGSQGSEEEGSEDDGQTSAASQPTTPAQSEGATTETIEATPKEECGTSFVMWFGEGTPAATLKCGAYTIVYAPIKDQTDPAPRYISGEVTSVTFEKSDNTVKIKVNGQDFSTLSANSSSPTENGGSAGQASSR
modifications: long stretch of serine residues after DVPVEG glycosylated with single residues of alpha N-acetyl galactosamine (first serine only partially); residues 180, 186 and 188 (S60 numbering) thought to be modified lysines
notes: Native protein from sporozoites/oocysts; also called 45 kDa protein; 45 kDa band

How the values were obtained:
[1] = molecular target: T1, Canavalia ensiformis lectin (Con A) (Canavalia ensiformis, UniProt P02866 30-281, limits assumed, biotin-conjugated); assay: lectin Western blot of Triton X-114 fractionated sporozoite proteins
Experimental: Excysted oocysts or purified sporozoites were resuspended to 1×10⁹ cells/ml in ice-cold TBS (10 mM Tris, pH 8.0, 140 mM NaCl) containing a protease inhibitor mixture of 50 μM leupeptin (Sigma),.10 μM E-64 (Sigma), 1 mM phenylmethylsulfonylfluoride (Sigma). […] Lysates were then centrifuged (100,000×g for 1 h at 4° C.) and the supernatant warmed for 3 minutes to 37° C. to induce phase separation. The water phase and the membrane protein enriched detergent phase were separated by centrifugation and each phase reextracted once. The phases were adjusted to the original volume and proteins precipitated by adding 1/10 volume of ice cold 100% (w/v) trichloroacetic acid. After 30 minutes precipitates were pelleted by centrifugation and washed twice in 70% (v/v) ice-cold ethanol and once with acetone. Pellets were then air dried and redissolved in 1-D or 2-D sample buffer for electrophoretic analysis.
For lectin analysis, membranes blocked with 1% (w/v) BSA in PBS were incubated for 1 h with biotin-conjugated lectins (Sigma) in BSA/PBS and a further 3 h with 1:10,000 alkaline-phosphatase-conjugated ExtrAvidin in PBS. […] Membranes were developed in 1 M diethanolamine, pH 9.8, containing 1 mM MgCl₂, 0.5 mM 5-bromo-4-chloro-3-indolyl phosphate and 0.5 mM nitroblue tetrazolium.

[2] = molecular target: T1, Canavalia ensiformis lectin (Con A); assay: lectin blot after SDS-PAGE of sporozoite surface proteins
[3] = molecular target: B2; assay: co-fractionation: Triton X-114 phase separation, isoelectric focusing

| Binder | binding result [1] | binding result [2] | binding result [3] |
| --- | --- | --- | --- |
| B1 | no binding |  |  |
| B2 |  | no binding |  |
| B3 |  | no binding | binds |
